One substance from publication PMC12499391 can be followed below.

pEC50: −log10 of the molar value.

Common to all, as to assay: ELISA; dose-response of S protein binding to ACE2 and C-type lectins; which partner was coated and how binding was detected is not given for this experiment
For orientation: An ELISA detects its analyte on a solid surface through an enzyme-linked reagent.

The target of assay [1] is Recombinant human CLEC10A (human) (UniProt Q8IUN9).
Assay [2] concerns the target Recombinant human CLEC2 (human) (UniProt Q9P126).
Sequence of UniProt Q9P126 (Q9P126 whole entry): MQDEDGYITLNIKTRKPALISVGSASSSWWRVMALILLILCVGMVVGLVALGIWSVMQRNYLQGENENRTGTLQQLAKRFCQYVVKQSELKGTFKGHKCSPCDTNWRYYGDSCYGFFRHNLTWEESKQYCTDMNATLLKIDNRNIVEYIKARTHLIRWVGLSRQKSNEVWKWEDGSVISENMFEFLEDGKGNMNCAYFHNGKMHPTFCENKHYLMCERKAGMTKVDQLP
In assay [3] the target is Recombinant human CLEC5A (human) (UniProt Q9NY25).
Sequence of UniProt Q9NY25 (Q9NY25 whole entry): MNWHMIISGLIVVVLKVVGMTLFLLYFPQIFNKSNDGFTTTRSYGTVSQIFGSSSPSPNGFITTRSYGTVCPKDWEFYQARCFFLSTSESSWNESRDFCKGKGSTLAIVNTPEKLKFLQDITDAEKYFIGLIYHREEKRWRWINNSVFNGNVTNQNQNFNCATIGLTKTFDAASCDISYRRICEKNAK
The target of assay [4] is Recombinant human DC‐SIGN (human) (UniProt Q9NNX6).
Sequence of UniProt Q9NNX6 (Q9NNX6 whole entry): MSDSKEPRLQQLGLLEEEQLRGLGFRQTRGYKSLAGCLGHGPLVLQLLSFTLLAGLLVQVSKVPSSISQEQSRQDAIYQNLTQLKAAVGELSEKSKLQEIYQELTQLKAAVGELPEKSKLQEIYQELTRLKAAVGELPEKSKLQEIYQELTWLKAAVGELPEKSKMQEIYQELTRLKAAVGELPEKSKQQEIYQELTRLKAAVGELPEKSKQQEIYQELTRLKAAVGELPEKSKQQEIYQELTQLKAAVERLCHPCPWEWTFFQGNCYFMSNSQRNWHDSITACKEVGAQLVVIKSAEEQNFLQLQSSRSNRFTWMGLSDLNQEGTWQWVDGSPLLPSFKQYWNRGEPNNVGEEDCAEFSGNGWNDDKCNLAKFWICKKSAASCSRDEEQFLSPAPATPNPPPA
Assay [5] addresses Recombinant human L‐SIGN (human) (UniProt Q9H2X3).
Sequence of UniProt Q9H2X3 (Q9H2X3 whole entry): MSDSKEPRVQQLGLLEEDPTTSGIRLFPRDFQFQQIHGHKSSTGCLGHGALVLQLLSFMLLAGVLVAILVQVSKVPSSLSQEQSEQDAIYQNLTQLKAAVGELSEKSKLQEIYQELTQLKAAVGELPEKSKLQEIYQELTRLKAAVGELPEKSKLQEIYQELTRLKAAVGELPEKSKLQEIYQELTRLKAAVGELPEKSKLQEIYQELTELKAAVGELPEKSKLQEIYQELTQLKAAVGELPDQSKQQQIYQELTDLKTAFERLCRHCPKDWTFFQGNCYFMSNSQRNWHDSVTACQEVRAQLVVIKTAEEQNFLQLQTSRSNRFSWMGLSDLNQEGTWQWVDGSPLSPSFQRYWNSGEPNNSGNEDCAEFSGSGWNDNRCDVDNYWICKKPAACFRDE

Sequence of UniProt Q8IUN9 (Q8IUN9 whole entry): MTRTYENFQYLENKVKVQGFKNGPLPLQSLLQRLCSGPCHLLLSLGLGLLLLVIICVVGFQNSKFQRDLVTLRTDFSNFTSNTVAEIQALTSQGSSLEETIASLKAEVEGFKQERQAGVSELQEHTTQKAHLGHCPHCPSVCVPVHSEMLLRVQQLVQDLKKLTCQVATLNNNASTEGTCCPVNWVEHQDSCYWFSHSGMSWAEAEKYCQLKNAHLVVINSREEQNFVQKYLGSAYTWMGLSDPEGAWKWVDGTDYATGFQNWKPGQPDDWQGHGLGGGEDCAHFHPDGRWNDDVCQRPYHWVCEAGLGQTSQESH

For the substance “SARS‐CoV‐2 spike (S) protein (from UniProt P0DTC2 14-1213) (natural protein)”, the negative logarithm of the EC50 (pEC50) (usually −log10 of the EC50, conventionally taken in molar units) is 8.01 in assay [1]; 8.11 in assay [2]; 8.19 in assay [3]; 8.34 in assay [4]; 8.29 in assay [5].
